The experiment addresses Fas receptor (UniProt P25445). Kind of experiment: cell-based or functional assay.

Fas receptor, sequence (P25445 26-335 limits assumed): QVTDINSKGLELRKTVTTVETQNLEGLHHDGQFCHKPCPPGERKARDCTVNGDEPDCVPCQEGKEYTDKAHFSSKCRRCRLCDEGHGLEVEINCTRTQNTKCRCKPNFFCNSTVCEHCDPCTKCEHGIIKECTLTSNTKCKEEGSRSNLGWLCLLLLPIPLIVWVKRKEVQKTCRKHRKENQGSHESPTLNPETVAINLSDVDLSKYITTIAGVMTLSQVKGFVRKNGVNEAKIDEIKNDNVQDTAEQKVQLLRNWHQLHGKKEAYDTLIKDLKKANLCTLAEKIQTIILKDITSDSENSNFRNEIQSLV

In the case of CH-11 anti-Fas IgM (antibody), the 460/530 emission ratio, + αFas/+ chx, Jurkat cells expressing 2XUb-DEVD-Bla, 50 ng/ml anti-Fas IgM for 6 hours (460/530 emission ratio) turned out to be 0.67 and the EC50 of caspase activation in Jurkat cells expressing 2XUb-DEVD-Bla (β-lactamase activity, CCF2 460/530 nm ratio after cycloheximide chase) came out at 11 ng/mL.

For the origin of these results see patent publication US7262005.
